# Paper PMC7794242
# Target: HCoV-229E S glycoprotein wild-type soluble ectodomain (residues 1-1116) with C-terminal GCN4 trimerization motif (HCoV-229E) (UniProt P15423)
# Experiment: cryo-EM structure; S trimer peak 2 (conformation 1, 3.21 A) and peak 3 (conformation 2, 3.55 A) samples at 0.75 mg/ml; C3 symmetry applied
substance,measurement,value
HCoV-229E S glycoprotein wild-type soluble ectodomain (residues 1-1116) with C-terminal GCN4 trimerization motif (from UniProt P15423 16-1116) (domain or fragment),stoichiometry N,3
